Experiments:
Test in all cases: cell-based or functional assay
[1] = target: Bee venom (Apis melifera) PLA2 (Apis mellifera) (UniProt P00630)
[2] = target: daboiatoxin, the major PLA2 toxin of Daboia russelli siamensis venom (Daboia russelli siamensis)
[3] = target: Taipoxin (Oxyuranus scutellatus PLA2) (Oxyuranus scutellatus) (UniProt P00614)
Sequence of Taipoxin (Oxyuranus scutellatus PLA2) (Oxyuranus scutellatus) (P00614 whole entry, chain 1 of 3): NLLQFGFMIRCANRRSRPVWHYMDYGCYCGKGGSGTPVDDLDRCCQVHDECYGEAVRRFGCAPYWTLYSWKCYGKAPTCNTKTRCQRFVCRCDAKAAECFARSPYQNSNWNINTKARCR
Sequence of Taipoxin (Oxyuranus scutellatus PLA2) (Oxyuranus scutellatus) (P00615 28-145, chain 2 of 3, further chain): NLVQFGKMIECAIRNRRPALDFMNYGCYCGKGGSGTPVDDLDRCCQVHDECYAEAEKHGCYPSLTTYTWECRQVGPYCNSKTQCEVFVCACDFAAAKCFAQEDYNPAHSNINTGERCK
Sequence of Taipoxin (Oxyuranus scutellatus PLA2) (Oxyuranus scutellatus) (P00616 20-152, chain 3 of 3, further chain): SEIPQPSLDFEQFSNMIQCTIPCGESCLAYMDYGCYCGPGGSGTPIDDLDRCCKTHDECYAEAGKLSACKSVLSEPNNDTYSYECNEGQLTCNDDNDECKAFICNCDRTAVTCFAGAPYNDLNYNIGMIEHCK

Sequence of recombinant Python Antitoxic Factor (PAF), later renamed Phospholipase Inhibitor from Python (PIP), (Q9I8P7 20-201): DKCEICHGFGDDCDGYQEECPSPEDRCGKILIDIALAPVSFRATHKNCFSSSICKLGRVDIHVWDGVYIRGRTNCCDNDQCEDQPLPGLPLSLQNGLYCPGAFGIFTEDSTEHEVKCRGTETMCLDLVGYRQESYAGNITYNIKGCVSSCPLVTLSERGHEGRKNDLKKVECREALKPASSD
Sequence of Bee venom (Apis melifera) PLA2 (Apis mellifera) (P00630 34-167): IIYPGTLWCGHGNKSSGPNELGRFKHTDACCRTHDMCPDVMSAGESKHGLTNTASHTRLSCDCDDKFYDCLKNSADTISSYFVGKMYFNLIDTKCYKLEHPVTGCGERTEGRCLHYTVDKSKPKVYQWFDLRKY

Substance	% Inhibition of paw oedema; Bee venom PLA2 (1 µg) + 100 µg AIP-2 [1]	% Inhibition of paw oedema; DbTx (1 µg) + 100 µg AIP-2 [2]	% Inhibition of paw oedema; Bee venom PLA2 (1 µg) + 50 µg PIP [1]	% Inhibition of paw oedema; Bee venom PLA2 (1 µg) + 100 µg PIP [1]	% Inhibition of paw oedema; DbTx (1 µg) + 50 µg PIP [2]	% Inhibition of paw oedema; DbTx (1 µg) + 100 µg PIP [2]	% Neutralisation [3]
anti-inflammatory peptide-2 from Sigma	33.6%	35.3%					
recombinant Python Antitoxic Factor (PAF), later renamed Phospholipase Inhibitor from Python (PIP), (from UniProt Q9I8P7 20-201)			39.9%	78.1%	89.2%	92.2%	50%
